Laboratory results published in the nanobody polyreactivity screen of Harvey et al. (2022).

Assay: yeast display, Sf9 membrane polyspecificity reagent, FACS + sequencing; frameworks hold sequencing errors
Procedure, shortened: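 A synthetic nanobody library was expressed on Saccharomyces cerevisiae BJ5465 by galactose induction for 36–48 hours. The library was stained for 1 hour at 4 °C with 10% biotinylated, detergent-solubilized Sf9 membrane reagent and enriched with streptavidin microbeads before FACS. Low and high (top ~1%) gates were set on anti-HA fluorescence for expression and streptavidin fluorescence for reagent binding, and each polyreactivity label reflects the gate of origin.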
With “QVQLVESGGGLVQAGGSLRLSCAASGITFRSYAMGWNIQAPGKERELVAAITTGTRTYYADSVKGRFTISRDNAKNTVFLQMKSLKPEDTAVYYCARDGVGRVYGYLTPLGYDYWGHGTQVTVSS” the “polyreactivity (PSR sort gate)” value was “low polyreactivity”.
For “QVQLVESGGGLVQAGGSLRLSCAASGITFRSYAMGWYRQAPGKERELVAAISSTGRTYYADSVKGRFTISRDNAKNTVYLQMNSLKPEDTAVYYCATGGQGAFWGQGTQVTVSS”, the “polyreactivity (PSR sort gate)” value was “high polyreactivity”.
In the case of “QVQLVESGGGLVQAGGSLRLSCAASGITFRSYAMGWYRQAPGKERELVAAITSGASTNYADSVKGRFTISRDNAKNTVYLQMNSLKPEDTAVYYCAATYHTWRGQYLWYDYWGQGTQVTVSS”, the “polyreactivity (PSR sort gate)” value is reported as “low polyreactivity”.
With “QVQLVESGGGLVQAGGSLRLSCAASGITFRTNAMGWYRQAPGKERELVAVISSTGGRTYYADSVKGRFTISRDNAKNTVYLQMNSLNPEDTAVYYCAARAKYRFGYDYWGQGTQVTVSS” the “polyreactivity (PSR sort gate)” value was “high polyreactivity”.
With “QVQLVESGGGLVQAGGSLRLSCAASGITFRTNTMGWYRQAPGKERELVAAITRSGVTTYYADSVKGRFTISRDNAKNTVYLQMNSLKPEDTAVYYCAARSTKYLYGYWGQGTQVTVSS” the “polyreactivity (PSR sort gate)” value was “high polyreactivity”.
For “QVQLVESGGGLVQAGGSLRLSCAASGITFRTYAMGWYRQAPGKERELVAAISSSGGSTYYADSVKGRFTISRDNAKNTVYLQMNSLKPADTAVYYCAAEWIADLSSPVWYDYWGQGTQVTVSS”, the “polyreactivity (PSR sort gate)” value was “high polyreactivity”.
With “QVQLVESGGGLVQAGGSLRLSCAASGITFRWNAMGWYRPAPGKARELVAAITYRGGSTHYADSVKGRFTISRDNGKNSVYIQMNSLKPEDTAVYYCAVRRWPRYRWSDYWVQGTQVTVSS” the “polyreactivity (PSR sort gate)” value was “low polyreactivity”.
With “QVQLVESGGGLVQAGGSLRLSCAASGITFRYNAMGWYRQAPGKERQLVAGITGSGGRTYYADSVKGRFTISRDNAKNSVYLQMNSLKPEDTAVYYCAAYPPARRTMDYWGQGTQVTVSS” the “polyreactivity (PSR sort gate)” value was “low polyreactivity”.
In the case of “QVQLVESGGGLVQAGGSLRLSCAASGITFRYYAMGWDRQAPGKERELVAAINRGGDSTYYADSVKGRFTISRDNAKNTVYLQMNSLKPEDTAVYYCAASSYYRGTFYPSYYWGQGTQVTVSS”, the “polyreactivity (PSR sort gate)” value is reported as “high polyreactivity”.
With “QVQLVESGGGLVQAGGSLRLSCAASGITFRYYAMGWYRQAPGKERELVAAISDGGSTNYADSVKGRFTISRDNAKNTVYLQMNSLKPEDTAVYYCDADYRYLFDYWGQGTQVTVSS” the “polyreactivity (PSR sort gate)” value was “high polyreactivity”.
With “QVQLVESGGGLVQAGGSLRLSCAASGITFRYYAMGWYRQAPGKERELVAAISGSGGSTYYADSVKGRFTISRDNAKNTVYLQMNSLKPEDTAVNYCNVDKGYSRSLRLGYDYWGQGTEVTVSS” the “polyreactivity (PSR sort gate)” value was “high polyreactivity”.
For “QVQLVESGGGLVQAGGSLRLSCAASGITFRYYAMGWYRQAPGKERELVAAISSTGGSTYYADSVKGRFTISRDNAKNTVYLQMNSLKPEDTAVYYCNADTTFYGYRTYRPENYWGQGTQVTVSS”, the “polyreactivity (PSR sort gate)” value was “high polyreactivity”.
For “QVQLVESGGGLVQAGGSLRLSCAASGITFRYYTMGWYRQAPGKERELVAAISRSGGSTYYADSVKGRFTISRDNAKNNVYLQMNSLKPEDTAVYYCAVDYTYDMDYWGQGTQVTVSS”, the “polyreactivity (PSR sort gate)” value was “high polyreactivity”.
With “QVQLVESGGGLVQAGGSLRLSCAASGITFSDYAMGWYRQAPGKEWELVAAISARGGSTYYADSVKGRFTISRDNAKNTVYLQMNSLKPEDTAVYYCAADKRTPYYSRAGMDYWGQGTQVTVSS” the “polyreactivity (PSR sort gate)” value was “low polyreactivity”.
For “QVQLVESGGGLVQAGGSLRLSCAASGITFSGNAMGWYRQAPGKERELVAAITWRGDNTYYADSVKGRFTISRDNAKNTVYLQMNSLKPEDTAVYSCAAKSPLFGLTSYPGPDDSWGQGTQVTVSS”, the “polyreactivity (PSR sort gate)” value was “low polyreactivity”.
For “QVQLVESGGGLVQAGGSLRLSCAASGITFSGNTMGWYRQAPGKERELVAAISSGGSTYYADSVKGRFTISRDNAKNTVLLQMNSLKPEDTAVYYCNADIYYAPYDYWGQGTQVTVSS”, the “polyreactivity (PSR sort gate)” value was “low polyreactivity”.
For “QVQLVESGGGLVQAGGSLRLSCAASGITFSNYSMGWYRQAPGKERELVAAISKRGGSTYYADSVKGRFTISRDNAKNTVYLQMNSLKPEDTAVYYCAAAGVRVYVRSGLDYWGQGTQVTVSS”, the “polyreactivity (PSR sort gate)” value was “high polyreactivity”.
In the case of “QVQLVESGGGLVQAGGSLRLSCAASGITFSQYAMGWYRQAPGTERELVAAISGSGGDTYYADSVKGRFTISRDNAKNTVYLQMNSLKPEDTAVYYCNADYESVYYEDYDYWGQGTQVTVSS”, the “polyreactivity (PSR sort gate)” value is reported as “low polyreactivity”.
In the case of “QVQLVESGGGLVQAGGSLRLSCAASGITFSRNAMGWYRQAPGKERELVAAINWTGGNTYYADSVKGRFTISRDNAKNTVYLQMNSLKPEDTAVYYCAADRRWFVWGLGYWGQGTQVTVSS”, the “polyreactivity (PSR sort gate)” value is reported as “low polyreactivity”.
With “QVQLVESGGGLVQAGGSLRLSCAASGITFSRNAMGWYRQAPGNERELVATITSGCSTNYADSVKGRFTISRDNAKNNVYLQMNSLKPEDTAIYYCNAVWNTFISGRSYDYWGQGTQVTVSS” the “polyreactivity (PSR sort gate)” value was “low polyreactivity”.
In the case of “QVQLVESGGGLVQAGGSLRLSCAASGITFSRNARGGERQAPGQERELVATITSGGSTNYADSVKGRFTISRDNAKNTVYLQMNSLKPEDTAVFYCNAVWNTFISGRSYDYWGQGTQVTVSS”, the “polyreactivity (PSR sort gate)” value is reported as “low polyreactivity”.
In the case of “QVQLVESGGGLVQAGGSLRLSCAASGITFSRNVMGWSRQAPGKERELVAAISRSGGRTYYADSVKGRFTISRDNAMYTVYLQMNRLKPEDTAVYYCNRDIGGTSVLDDYWGQGNQVTVSS”, the “polyreactivity (PSR sort gate)” value is reported as “low polyreactivity”.
For “QVQLVESGGGLVQAGGSLRLSCAASGITFSSYAMGWYRQAPGTEREFVARISTDADTYYADSVKGRFTISRDNAKHTVLLQMNSLKPEDTAVYYCAAEDYRDFDYWGHGTQVTVSS”, the “polyreactivity (PSR sort gate)” value was “low polyreactivity”.
For “QVQLVESGGGLVQAGGSLRLSCAASGITFSYNAMGWSRQAPGKERELVAAISSNSDSTYYADSVKGRFTISRDNAKNTVYLQMNSLKPEDTAVYYCAADSPDDPDYSGFYYWGQGSQVTVSS”, the “polyreactivity (PSR sort gate)” value was “low polyreactivity”.
With “QVQLVESGGGLVQAGGSLRLSCAASGITFSYNAMGWYRQAPGKERELVAAISDIGGSTYYADSVKGRFTISRDNAKITVYLQMNSLKPEDTAVYYCAADEYYQDEYDYWGQGTQVTVSS” the “polyreactivity (PSR sort gate)” value was “low polyreactivity”.
In the case of “QVQLVESGGGLVQAGGSLRLSCAASGITFSYNAMGWYRQAPGKERELVAAISSNSDSTYYADSVKGRFTISRDYAKNTVYLQMNRLKPEDTAVYYCAADTPDAPDYSGFYYWGQGTQVTVSS”, the “polyreactivity (PSR sort gate)” value is reported as “low polyreactivity”.
In the case of “QVQLVESGGGLVQAGGSLRLSCAASGITFSYYAMGWYRPAPGKERELVAAINSGGGSTYYADSVKGRFTISRDNAKNTVFLQMNSLKPDDTAVYYCAARYRSRYEYYYDRDYWGQGTQVSVSS”, the “polyreactivity (PSR sort gate)” value is reported as “low polyreactivity”.
For “QVQLVESGGGLVQAGGSLRLSCAASGITFSYYAMGWYRQAPGKERELVAAINGGGSRTYYADSVKGRFTISRDNAKNTVYLQMNSLKPEDTAVYYCAAYSGQARGYDYWGQGTQVTVSS”, the “polyreactivity (PSR sort gate)” value was “high polyreactivity”.
In the case of “QVQLVESGGGLVQAGGSLRLSCAASGITFTFNAMGWYRQAPGKERELVAAITWSGGSTFYADSVKGRFTFSRDNAKNTVYLQMNSLKPEDTAVYYCARDTELYVRWLDYWVQGTQVTVSS”, the “polyreactivity (PSR sort gate)” value is reported as “low polyreactivity”.
With “QVQLVESGGGLVQAGGSLRLSCAASGITFTPNAMGWYRQAPGKEREFVAAITYSGGSTYYADSVKGRFTISRDNAKNTVYLQMNSLKPEDTAVYYCAAVYYLLYYEAYYYWGQGTQVTVSS” the “polyreactivity (PSR sort gate)” value was “low polyreactivity”.
In the case of “QVQLVESGGGLVQAGGSLRLSCAASGITFTPYAMGWYRQAPGKERELVAAITSGGSTNYADSVKGRFTISRDNAKNTVYLQMNSLKPEDTAVYYCAAGRWPAPWYTRNYWGQGTQVTVSS”, the “polyreactivity (PSR sort gate)” value is reported as “low polyreactivity”.
In the case of “QVQLVESGGGLVQAGGSLRLSCAASGITFTRNVMGWYRQAPGKERELVAAISGSGGSTYYADSVKGRFTISRDNEKNTVYLQMNSLKTEDTAVYYCAARSRGGRRYDYWGQGTQVTVSS”, the “polyreactivity (PSR sort gate)” value is reported as “high polyreactivity”.
With “QVQLVESGGGLVQAGGSLRLSCAASGITFTRYAMGWYRQAPGKERELVAAISSGGRTNYADSVKGRFTISRDNAKNTVYLQMNSLKPEDTGVYYCNAAGHRWDPRYHYWGQGTQVTVSS” the “polyreactivity (PSR sort gate)” value was “high polyreactivity”.
With “QVQLVESGGGLVQAGGSLRLSCAASGITFTSNTLGWYRQAPGKERELVAAISKSGGSTYYADSVKGRFTISRDNAKNTVYLQMNSLKPEDTAVYYCAKDSDYYRRDVTVDYWGQGTQVTVSS” the “polyreactivity (PSR sort gate)” value was “low polyreactivity”.
For “QVQLVESGGGLVQAGGSLRLSCAASGITFTSNTMGWYRQAPGKERELVAAISKSGGSTYYADSVKGRFTISRDNEKNTVYLQMNSLKPEDTAVYYCNTVSFYDPFGAYGYWGQGTQVTVSS”, the “polyreactivity (PSR sort gate)” value was “high polyreactivity”.
In the case of “QVQLVESGGGLVQAGGSLRLSCAASGITFTSYAMGWYRQAPGKERELVAAISAGGGRTYYADSVKGRFTISRDNAKNTVYLQMNSLKPEDTAVYYCAVKYPELRTWGYYYWGQGTQVTVSS”, the “polyreactivity (PSR sort gate)” value is reported as “high polyreactivity”.
For “QVQLVESGGGLVQAGGSLRLSCAASGITFTSYVMGWYRQAPGKERELVAAISRSGGSSTYYADSVKGRFTISRDNAKNTVYLQMNSLKPEDTAVYYCAADSPYTGGANVYWGQGTQVTVSS”, the “polyreactivity (PSR sort gate)” value was “high polyreactivity”.
In the case of “QVQLVESGGGLVQAGGSLRLSCAASGITFTVYAMGWYRQAPGKERELVAAITSTGSTNYAHSVKGRFTISRDNAKNTVYLLMNSLKPEDTAVYYCAADRQITVYAYDYWGQGTQVTVSS”, the “polyreactivity (PSR sort gate)” value is reported as “low polyreactivity”.
With “QVQLVESGGGLVQAGGSLRLSCAASGITFTYYAMGWYRQAPGKERELVAAITWRGGSTYYADSVKGRFTISRDNAKNTVYLQMNSLKPEDTAVYYCAADVYVGPYHYEYWGQGTQVTVSS” the “polyreactivity (PSR sort gate)” value was “high polyreactivity”.
For “QVQLVESGGGLVQAGGSLRLSCAASGITFVGNAMGWSRQAPGKERELVAAMSSSGASTYYADSVKGRFTISRDYAKNTVYLQMNSLKPEDTAVYYCNAGWGVVIRRYPTYDYWGQGTQVTVSS”, the “polyreactivity (PSR sort gate)” value was “high polyreactivity”.
With “QVQLVESGGGLVQAGGSLRLSCAASGITFVHNVMGWYRQAPGKERELVAAINSGGRTYYADSVKGRFTISRDNAKNTVYLQMNSLKPEDTAVYYCAALGDKRGGGNYWGQGTQVTVSS” the “polyreactivity (PSR sort gate)” value was “high polyreactivity”.
With “QVQLVESGGGLVQAGGSLRLSCAASGITFVLNARGWYRQAPGKERELVARISWSTGSTYYADSVKGRFTISRDNAKNTVYLQMNSLKPEDTAVYYCAVDYNYQSLYVVVEGEYWGQGTQVTVSS” the “polyreactivity (PSR sort gate)” value was “low polyreactivity”.
In the case of “QVQLVESGGGLVQAGGSLRLSCAASGITFVLYAMGWYRQAPGKERELVAANSSSGGRTYYADSVKGRFTISRDYAKNTVYLQMNSLKPEDTAVYYCAKDTYGFAANRPAGDGYWGQGTQVTVSS”, the “polyreactivity (PSR sort gate)” value is reported as “high polyreactivity”.
